Assay results from the nanobody polyreactivity screen of Harvey et al. (2022).

Assay: yeast display, Sf9 membrane polyspecificity reagent, FACS + sequencing; frameworks hold sequencing errors
Summary of the method: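 Galactose-induced (36–48 hours) yeast carrying a synthetic nanobody display library were exposed to 10% biotinylated, detergent-solubilized Sf9 membrane reagent at 4 °C for 1 hour. FACS followed streptavidin microbead enrichment, using low and high (top ~1%) gates for expression (anti-HA) and reagent binding (streptavidin). Colony PCR, MiSeq 2 × 250 sequencing and CDR-length filtering followed. Labels for polyreactivity reflect the gate of origin.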

Row | Sequence | polyreactivity (PSR sort gate)
1 | QVQLVESGGGLVQAGGSLRLSCSASGRTFEHNCMGWSRQAHGKERELVASITSVGSTDYADSVKGRFTISRDNAKNTVYLQMNSLKPEDTAVYYCAKTLGSQNYDFDYWGQGTQVTVSS | low polyreactivity
2 | QVQLVESGGGLVQAGGSLRLSCAASGLTFGNYAMGWYRQAPGKERELVAAISWGGGITYYADSVKGRFTISRDNAKNTVYLQMNSLKPEDTAVYYCAADVYFKSTPEYLYDYWGQGTQVTVSS | low polyreactivity
3 | QVQLVESGGGLVQAGGSLRLSCAASGSTFPGYAMGWYRQAPGKERELVAAINWRGDSTYYADSVKGRFTISRDNAKNTVYLEMNSLKPEDPAVYFCNTVWGSPSRSSAYDYWGQGTQVTVSS | high polyreactivity
4 | QVQLVESGGGLVQAGGSLRLSCAASGSTLQGYAMGWYRQAPGKERELVAAISRSGGSTYYADSVKGRFTISRDNAKNTVYLQMNSLKPEDTAVYYCNRVAGGRRKGPWSYQYDYWGQGPQVTVSS | high polyreactivity
5 | QVQLVESGGGLVQAGGSLRLSCAASGRIFSNNAMGWYRQAPGKERELVAAITNSGGSTYYADSVKGRFTISRDNAKNTVYLQMNSLKPEDTAVYYCNARSKVAYYRHYYWGQGTQVTVSS | low polyreactivity
6 | QVQLVESGGGLVQAGGSLRLSCAASGIIFGYYAMGWYRQAPGKERELVAAISRRGGSTYYADSVKGRFTISRDNAKNTVYLQMNSLKPEDTAVYYCNKRRAAGGFPYDYWGQGTQVTVSS | high polyreactivity
7 | QVKHVESVGGLVQAGGSLRLSCAASGITFVRNAMGWSRQAPGKETDLVAAISSGGGSTYYADSVKGRFTISRDNAKNTVYLQMNSLKPEDTAVYYCNAQGFIYYWLRYDYWGQGTQVTVSS | high polyreactivity
8 | QVQLVESGGGLGKAVGSLRLSCAASGSTFEYYALGWYRLAPGTETELVAAISTAGSTYYADSVKGRFTISRDNAKYTVYLQMNSLKPEDTGVYYCAVDPSPRSYYNYYWGQGTQVTVSS | high polyreactivity
9 | HVQLVESGGGLVQAGGSLRLSCAASGSSSAKYAMGWYRQAPGKERELVAAITSRADSTYYADSVKGRFTISRDNAKNTVYLQMNSLKPEDTAVYYCNVRITVYRSDVWYFIYDYWGQGTQVTVSS | low polyreactivity
10 | QVQLVESGGGLVQAGGSLRLSCAASGSIFYWYDMGWYRHAPGKEWELVAAISFNVGSTYADSVKGRFTISRDNAKNTFYLQMNSLKPEDTAVYYCNVDAYRTSYEADVYYYTWIYYWGQGTQVTVSS | low polyreactivity
11 | QVQLVESGGGLVQAGGSLRLSCAASGSTFQVYAMGWYRQAPGKERELVATIRRTGGSTYYADSVKGRFTISRDNAKNTVYLQMNSLKPEDTAVYYCAARLGYAGNRDGSWGQGTQVTVSS | high polyreactivity
12 | QVQLVESGGGLVQAGGSLRLSCAASGSTFYYYAMGWYRQAPGKERELVASISSAGNTNYADSVKGRFTISRDNAKNTVYLQMNSLKPEDTAVYYCAARYSGHPRYYYYWGQGTQVTVSS | low polyreactivity
13 | QVQLVESGGGLVQAGGSLRLSCPASGIIFYRYSMGWKRQAPGKERQFVAAISRGGGSTYYADSVKGRFTISRDNAKNTFYLQMNSLKPEDTAVYYCNARDTRVTVDQYSIKRMDYWGKGTQVTVSS | high polyreactivity
14 | QVQLVESGGGLVQAGGSLRLSCAASGFTFYYNAMGCYRQAPGKERELVAIRFRGGNTYYADSVKGRFTISRDNAKNTVYLQMNSLKPEDTAVYYCNADDRGSTYVDFDYWGQGTQVTVSS | low polyreactivity
15 | QDQLVDSGGGLVQAGGSLSLSCAASGYILDYYAMGWSRQAPGKERELVAAISYRGDSTYYADSVKGRFTISRDNEKNTVYLQMNSLKPEDTAVYYCNAGYFTRAQYEYDYWGQGSQVTVSS | high polyreactivity
16 | QVQLVESGGGLVQAGGSLRLSCAASGSTFLTNTMGWYRQAPGKERELVAAISKSGGSTYYADSVKGRFTISRDNAKNTVYLQMNSLKPEDTAVYYCAAVRYVHFGYDYWGQGTQVTVSS | high polyreactivity
17 | QVQLVESGGGLVQAGGSLRLSCAASGSTFGKNAMGWYRQAPGKERELVAAITRGSGSTYYADSVKGRFTISRDNAKNTVYLQMNSLKPEDTAVYYCAARRYRLSTPEFNYWGQGTQVTVSS | high polyreactivity
